Positions count from the first letter of the chain named.
Key:
[1] = target: T1, human CD39 (full length, on cells) (human, UniProt P49961 1-510); experiment: FACS, SK-MEL-28 cells
T1 construct: Recombinant on CHOK1-hCD39 cells or natural on SK-MEL-28, SK-MEL-5 and MOLP-8 cells; the cell line is named under assay; also called hCD39; ENTPD1
T1 sequence: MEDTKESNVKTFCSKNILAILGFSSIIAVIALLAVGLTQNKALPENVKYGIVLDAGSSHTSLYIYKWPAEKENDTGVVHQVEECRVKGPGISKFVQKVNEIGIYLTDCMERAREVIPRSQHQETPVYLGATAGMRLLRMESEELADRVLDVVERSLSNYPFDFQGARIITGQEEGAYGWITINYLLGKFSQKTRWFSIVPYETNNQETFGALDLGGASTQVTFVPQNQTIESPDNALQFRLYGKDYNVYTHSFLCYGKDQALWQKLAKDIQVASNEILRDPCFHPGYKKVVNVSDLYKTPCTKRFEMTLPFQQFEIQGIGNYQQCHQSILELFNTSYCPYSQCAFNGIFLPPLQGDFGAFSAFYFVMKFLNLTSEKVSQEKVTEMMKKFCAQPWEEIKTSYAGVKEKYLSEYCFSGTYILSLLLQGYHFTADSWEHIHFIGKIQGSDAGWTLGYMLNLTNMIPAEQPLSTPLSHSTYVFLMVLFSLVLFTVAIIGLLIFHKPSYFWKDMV
Experimental: (§1) FACS were used to determine binding of the antibodies to cell lines expressing CD39 naturally (SK-MEL-28) or recombinantly (CHOK1-hCD39, CHOK1-cynoCD39, and CHOK1-mCD39), or with cells lacking CD39 expression (CHOK1-blank) as a negative control.
(§2) Similarly, human CD39 expressing cells SK-MEL-5, SK-MEL-28 or MOLP-8, were incubated with a gradient concentration of anti-CD39 antibodies for 30 minutes at 4° C. Cells were washed 3 times using FACS buffer and next incubated with fluorescence labelled secondary antibody (goat-anti-mouse IgG or goat anti-human IgG) for 30 minutes at 4° C. Cells were washed 3 times and then re-suspended in FACS buffer and analyzed by flow cytometry analysis on BD Celesta. Data plotted and analyzed using GraphPad Prism 8.02.

[2] = target: T1, human CD39 (full length, on cells); experiment: cell-based or functional assay
[3] = target: T1, human CD39 (full length, on cells); experiment: FACS, CHOK1-hCD39 cells
Text: as §1
(§3) CHOK1-hCD39, CHOK1-cCD39, CHOK1-mCD39 and CHOK1-blank cells were maintained in culture medium according to ATCC procedure. Cells were collected and re-suspended in blocking buffer at a density of 3×10⁶ cells/ml. Cells were transferred to 96 well FACS plates at 100 μl/well (3×10⁵ cells/well), the plates were centrifuged and washed twice with FACS buffer (PBS, 1% FBS, 0.05% Tween-20). 4-folds serial dilution of anti-CD39 antibodies were prepared in FACS buffer starting from 30 μg/ml. Reference antibody 9-8B and mouse/human control IgG were used as positive and negative controls, respectively. Cells were re-suspended in 100 μL/well diluted antibodies, and the plates were incubated at 4° C. for 60 min. […] The plates were washed with FACS buffer, and cells were re-suspended in 100 μL/well of PBS. Cells were then analyzed with FACSVerse™ and mean fluorescence intensity were determined. Full binding curves were generated on the CD39 expressing cells by testing a range of antibody concentrations. Apparent affinity was determined for each antibody using Prism software.

[4] = target: T2, mouse CD39 (full length, on CHOK1-mCD39 cells) (mouse, UniProt P55772 1-510); experiment: FACS, CHOK1-mCD39 cells
T2 construct: whole, on cells
T2 sequence (looked up): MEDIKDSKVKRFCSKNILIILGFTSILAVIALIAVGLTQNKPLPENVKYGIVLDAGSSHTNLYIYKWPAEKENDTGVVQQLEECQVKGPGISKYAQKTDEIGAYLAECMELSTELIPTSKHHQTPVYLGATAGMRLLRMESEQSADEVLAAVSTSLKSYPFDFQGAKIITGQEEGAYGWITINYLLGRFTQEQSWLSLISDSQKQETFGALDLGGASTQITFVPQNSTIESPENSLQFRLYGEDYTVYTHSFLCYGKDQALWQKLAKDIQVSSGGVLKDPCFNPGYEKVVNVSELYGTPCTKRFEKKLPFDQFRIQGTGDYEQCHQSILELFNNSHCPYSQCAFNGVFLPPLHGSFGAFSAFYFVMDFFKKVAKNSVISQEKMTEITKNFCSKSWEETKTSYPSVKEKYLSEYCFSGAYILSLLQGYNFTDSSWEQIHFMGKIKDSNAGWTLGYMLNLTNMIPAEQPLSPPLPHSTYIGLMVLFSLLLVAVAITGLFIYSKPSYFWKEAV
Text: as §1, §3

[5] = target: T3, cynomolgus CD39 (full length, on CHOK1-cynoCD39 cells) (cynomolgus monkey, UniProt A0A7N9DGH8 1-510); experiment: FACS, CHOK1-cynoCD39 cells
T3 construct: whole, on cells; also called cCD39
T3 sequence: T1 sequence with V47I, F94Y, V221I, I230T, I329V, K368N, A391S, F489V, T490I
Text: as §1, §3

[6] = target: T1, human CD39 (full length, on cells); experiment: FACS, MOLP-8 cells
Experimental: as §2
(§4) The binding affinity of the humanized antibodies for c14 was determined by FACS using MOLP-8 cells expressing human CD39, using similar methods as described in Example 3.2.

[7] = target: T1, human CD39 (full length, on cells); experiment: FACS on MOLP-8 cells, MFI
Experimental: as §2, §4

B1: mAb13 (antibody, V domains shown)
VH: QIQLVQSGPELKKPGETVKISCKASGYTFTNYGMNWVKQAPGKGLRWMGLINTYTGEPTYADDFKDRFAFSLETSASTAFLQINNLKDEDMATYFCARKGIYYDYVWFFDVWGAGTTVTVSS
VL: DIQMTQSPSSLSTSLGGKVSITCKASQDINRYIAWYQHKPGKGPRLLIHYTSTLLPGIPSRFSGSGSGRDYSFSISNLEPEDIATYFCLQYSNLLTFGGGTKLEIK
notes: mouse hybridoma antibody
For B1, the EC50 [1] was 11 nM, the “SK-MEL-28 cell based ATPase inhibition % at 10 nM” value [2] was 43% and the EC50 [3] was 30 nM. For the same binder, the binding result [4] was “no binding (tested: 30 µg/ml highest concentration)” and the EC50 [5] was 21 nM.

B2: mAb34 (antibody, V domains shown)
VH: EIQVQQSGPELVKPGASVKVSCKASGYSFTDYNMYWVKQSHGKSLEWIGFIDPYNGYTSYNQKFKGKATLTIDKSSSTAFMHLNSLTSEDSAVYYCAIYGYDDAYYFDYWGQGTTLTVSS
VL: QIVLTQSPAIMSASPGEKVTITCSATSSVSYMHWFRQKPGTSPKLWIYSTSNLASGVPARFSGSGSGTSYSLTISRMAAEDAATYYCQQRITYPFTFGSGTKLEIT
notes: mouse hybridoma antibody
B2 was tested, and the EC50 [1] was 4.7 nM, the “SK-MEL-28 cell based ATPase inhibition % at 10 nM” value [2] was 72% and the EC50 [3] was 4.4 nM. The binding result [4] was “no binding (tested: 30 µg/ml highest concentration)” and the EC50 [5] was 3.1 nM.

B3: mAb35 (antibody, V domains shown)
VH: EVRLQQSGAELVKPGASVKLSCTASGFNIEDTYVHWMKQRPEQGLEWIGRIDPAIDNSKYDPKFQGKATITAVSSSNTAYLQLSSLTSEDTAVYYCALYDGYNVYAMDYWGQGTSVTVSS
VL: DIVMTQAAFSNPVTLGTSASISCRSSKNLLHSNGITYLYWYLQRPGQSPQLLIYRASTLASGVPNRFSGSESGTDFTLRISRVEAEDVGVYYCAQLLELPHTFGGGTKLEIK
notes: mouse hybridoma antibody
B3 was tested, and the EC50 [1] was 1.8 nM, the “SK-MEL-28 cell based ATPase inhibition % at 10 nM” value [2] was 56% and the EC50 [3] was 5.2 nM. For the same binder, the binding result [4] was “no binding (tested: 30 µg/ml highest concentration)” and the EC50 [5] was 5.3 nM.

B4: hu14.H2L2 (antibody, V domains shown)
VH: EVQLVESGGGLVKPGGSLRLSCAASGFTFSKYWMNWVRQSPGKGLEWVGEIRLKSNKYGTHYAESVKGRFTISRDDSKNTLYLQMNSLKTEDTAVYYCTTQLDLYWFFDVWGQGTTVTVSS
VL: EIVLTQSPATLSLSPGERATLSCRASQSISDYLHWYQQKPGQSPRLLIYYASQSISGIPARFSGSGSGTDFTLTISSLEPEDFAVYFCQNGHSLPLTFGGGTKLEIK
notes: humanized c14
B4 showed an EC50 [6] of 6.91 nM.

B5: hu14.H1L3 (antibody, V domains shown)
VH: B4 VH with S40A
VL: B4 VL with L13V, L78V
notes: humanized c14
B5: binds [7].

B6: hu14.H1L4 (antibody, V domains shown)
VH: B4 VH with S40A
VL: B4 VL with L4M, L13V, A19V, L78V
notes: humanized c14
B6: binds [7].

B7: hu14.H2L1 (antibody, V domains shown)
VH: B4 VH
VL: B4 VL with S43A, F87Y
notes: humanized c14
B7: binds [7].

B8: hu14.H2L3 (antibody, V domains shown)
VH: B4 VH
VL: B4 VL with L13V, L78V
notes: humanized c14
B8: binds [7].

B9: hu14.H2L4 (antibody, V domains shown)
VH: B4 VH
VL: B4 VL with L4M, L13V, A19V, L78V
notes: humanized c14
B9: binds [7].

B10: hu14.H3L1 (antibody, V domains shown)
VH: B4 VH with G49A, L81V
VL: B4 VL with S43A, F87Y
notes: humanized c14
For B10, the EC50 [6] was 5.95 nM.

B11: hu14.H3L2 (antibody, V domains shown)
VH: B4 VH with G49A, L81V
VL: B4 VL
notes: humanized c14
B11: binds [7].

B12: hu14.H4L2 (antibody, V domains shown)
VH: B4 VH with L18M, G49A, L81V
VL: B4 VL
notes: humanized c14
B12: binds [7].

Reference: patent US20210388105A1 (ELPISCIENCE SUZHOU BIOPHARMA, published 2021)
